According to paper PMC11829017:

Legend:
[1] = biological target: E. coli ρ G150D with the sensor cysteines C84/C405 (X1), untagged (E. coli MG1655) (UniProt P0AG30); assay: cross-linking; BMOE (0.5 mM) crosslinking of 1 μM purified ρ in PN23 buffer without nucleotide; LDS-PAGE
[2] = biological target: E. coli ρ G150D with the sensor cysteines C84/C405 (X1), untagged (E. coli MG1655) (UniProt P0AG30); assay: cross-linking; BMOE (0.5 mM) crosslinking of 1 μM purified ρ in PN23 buffer with 2 mM ADP, 10 min at room temperature; LDS-PAGE
[3] = biological target: E. coli ρ G150D with the sensor cysteines C84/C405 (X1), untagged (E. coli MG1655) (UniProt P0AG30); assay: cross-linking; BMOE (0.5 mM) crosslinking of 1 μM purified untagged ρ in PN23 buffer with ppGpp or pppGpp; LDS-PAGE

- percent of ρ in the filament fraction [1]: 18%
- percent of ρ in the filament fraction [2]: 56%
- stoichiometry N [3]: 12
Substance: E. coli ρ G150D with the sensor cysteines C84/C405 (X1), untagged (from UniProt P0AG30 1-419) (enzyme)
